The target in assay [1] is wild-type human IL-21R (human) (UniProt Q9HBE5). In words: AlphaSeq yeast mating assay, pH 5 media.
The target is the same in assay [2]. The assay is described as follows: AlphaSeq yeast mating assay, pH 6 media.
Assay [3] has the same target. The assay is described as follows: AlphaSeq yeast mating assay, pH 7 media.
Assay [4] has the same target. The assay is described as follows: AlphaSeq yeast mating assay, unbuffered media.
The target of assay [5] is human interleukin 21 receptor (IL-21R) (human) (UniProt Q9HBE5). In words: AlphaSeq yeast mating assay, pH 7 media.
For assay [6] the target is unchanged. The assay is described as follows: AlphaSeq yeast mating assay, unbuffered media.
Assay [7] shares this target. The assay is described as follows: AlphaSeq yeast mating assay, pH 5 media.
The target is the same in assay [8]. The assay is described as follows: AlphaSeq yeast mating assay, pH 6 media.
The target of assay [9] is mouse IL-21R, His-tagged (BLI antigen) (mouse) (UniProt Q9JHX3). In words: BLI. On the technique in general: BLI is a label-free optical method that tracks binding on a fibre tip over time.
Assay [10] deals with recombinant human IL-21R His tag (Acro Biosystems) (human) (UniProt Q9HBE5). In words: BLI.
The target of assay [11] is mouse IL-21R on T cells of mouse splenocytes (mouse) (UniProt Q9JHX3). In words: cell-based or functional assay.

This passage reports Kd and Mouse T cell EC50 (pM), pSTAT3 phosflow results from patent publication US12281147.

pKd: −log10 of the molar value.

In the case of “IL-21_N97G (from UniProt Q9HBE4 32-152) (ligand)”, the pKd (in general, the Kd on a negative log10 scale, so that one unit is a factor of ten) is 7.11 in [1], 7.62 in assay [2], 7.32 in assay [3] and 5.12 in assay [4].
Consider “IL-21_K106E (from UniProt Q9HBE4 32-152) (ligand)”, for which the pKd in assay [5] is 6.26; in assay [6] it was 6.92.
Turning to “IL-21_Q48G (from UniProt Q9HBE4 32-152) (ligand)”, the pKd in [1] was 7.23; in assay [2], 7.80; in assay [3], 7.41; in [4] it was 5.49.
In turn, “IL-21_S142D (from UniProt Q9HBE4 32-152) (ligand)” gave a pKd in assay [6] of 6.35.
Take “IL-21_A87N (from UniProt Q9HBE4 32-152) (ligand)”: the pKd in assay [1] was 6.96; in [2], 7.60; in [3], 6.92.
With “IL-21_N51E (from UniProt Q9HBE4 32-152) (ligand)”, the pKd in [7] is 7.70; in assay [8], 7.96; in [5], 6.85; in assay [6], 6.60.
As to “IL-21_E72H (from UniProt Q9HBE4 32-152) (ligand)”, the pKd in assay [2] is 7.96; in [3] it was 7.68; in assay [4] it was 5.47.
Consider “IL-21_R94T (from UniProt Q9HBE4 32-152) (ligand)”, for which the figures for the pKd in [7], in [8] and in [5] were 6.68, 7.57 and 7.10, respectively.
Substance “IL-21_K131V (from UniProt Q9HBE4 32-152) (ligand)” showed a pKd in assay [7] of 7.59.
With “IL-21_P107D (from UniProt Q9HBE4 32-152) (ligand)”, the pKd was 7.22 in assay [7] and 6.72 in [6].
As to “IL-21_S77M (from UniProt Q9HBE4 32-152) (ligand)”, the pKd in assay [7] was 7.40; in assay [8], 7.82; in [5], 7.22.
On to “IL-21_human_I148S Fc fusion protein (from UniProt Q9HBE4 30-162)”, for which the pKd in assay [9] is 8.19; in assay [10], 8.61.
On to “IL-21_H118K (from UniProt Q9HBE4 32-152) (ligand)”, for which the pKd in assay [1] is 4.00; in assay [2], 5.51; in assay [3], 6.43.
As to “IL-21_R34M (from UniProt Q9HBE4 32-152) (ligand)”, the pKd in assay [7] was 6.82; in assay [6], 6.41.
As for “IL-21_human_R38Q Fc fusion protein (from UniProt Q9HBE4 30-162)”, the pKd in assay [9] is 6.61; in [10], 7.05.
In the case of “IL-21_N54H (from UniProt Q9HBE4 32-152) (ligand)”, the pKd was 7.11 in [1], 7.70 in assay [2] and 7.57 in [3].
Turning to “IL-21_human_I95H Fc fusion protein (from UniProt Q9HBE4 30-162)”, the pKd in [9] is 6.07; in assay [10] it was 7.80.
For the substance “IL-21_human_I45H Fc fusion protein (from UniProt Q9HBE4 30-162)”, the pKd was 6.91 in assay [9] and 7.54 in assay [10].
Consider “IL-21_human_I37V Fc fusion protein (from UniProt Q9HBE4 30-162)”, for which the values for the pKd in [9] and in assay [10] were 8.28 and 8.52, respectively.
In the case of “IL-21_R114F (from UniProt Q9HBE4 32-152) (ligand)”, the pKd in assay [7] is 6.85; in [8], 7.32; in assay [5], 7.24; in assay [6], 6.35.
For “IL-21_R115Q (from UniProt Q9HBE4 32-152) (ligand)”, the pKd in assay [8] is 7.96; in [5], 7.25.
On to “IL-21_Q41S (from UniProt Q9HBE4 32-152) (ligand)”, for which the pKd is 6.85 in assay [1], 7.59 in [2], 7.60 in [3] and 5.52 in [4].
As for “IL-21_R115I (from UniProt Q9HBE4 32-152) (ligand)”, the pKd in assay [7] is 6.85; in assay [8], 7.46; in assay [5], 7.30; in [6], 6.59.
In assay [11], “IL-21_human_W73L Fc fusion protein (from UniProt Q9HBE4 30-162)” displayed a Mouse T cell EC50 (pM), pSTAT3 phosflow of 6900 pM. Also, the pKd in assay [9] is 7.70; in assay [10] it was 7.64.
For “IL-21_human_R105K Fc fusion protein (from UniProt Q9HBE4 30-162)”, the pKd in [9] is 7.38; in [10] it was 7.78.
Consider “IL-21_H118I (from UniProt Q9HBE4 32-152) (ligand)”, for which the values for the pKd in assay [7] and in assay [6] were 6.44 and 6.82, respectively.
For the substance “IL-21_R94S (from UniProt Q9HBE4 32-152) (ligand)”, the negative logarithm of the Kd (pKd) is 6.85 in [7], 7.57 in assay [8] and 7.46 in [5].
In [7], “IL-21_K85S (from UniProt Q9HBE4 32-152) (ligand)” had a pKd of 6.82.
Turning to “IL-21_F60R (from UniProt Q9HBE4 32-152) (ligand)”, the pKd in [1] was 7.12; in assay [2], 7.59; in assay [3], 7.57.
Consider “IL-21_L56M (from UniProt Q9HBE4 32-152) (ligand)”, for which the pKd in assay [1] was 6.46; in assay [2], 7.35; in assay [3] it was 7.08; in assay [4] it was 5.17.
Consider “IL-21_human_K106S Fc fusion protein (from UniProt Q9HBE4 30-162)”, for which the figures for the pKd in assay [9] and in assay [10] were 7.62 and 8.24, respectively.
In the case of “IL-21_human_I43M Fc fusion protein (from UniProt Q9HBE4 30-162)”, the pKd is 8.04 in assay [9] and 8.15 in assay [10].
Consider “IL-21_human_R38M Fc fusion protein (from UniProt Q9HBE4 30-162)”, for which the pKd is 6.72 in assay [9] and 7.06 in assay [10].
For “IL-21_F76M (from UniProt Q9HBE4 32-152) (ligand)”, the values for the pKd in [1], in [2] and in [3] were 7.11, 7.68 and 7.12, respectively.
In assay [11], “IL-21_human_D33P Fc fusion protein (from UniProt Q9HBE4 30-162)” registered a Mouse T cell EC50 (pM), pSTAT3 phosflow of 1800 pM. Further, the pKd in assay [9] is 7.70.
In the case of “IL-21_P62H (from UniProt Q9HBE4 32-152) (ligand)”, the pKd in assay [1] was 6.80; in assay [2] it was 7.68; in [3], 6.96; in [4] it was 5.29.
Substance “IL-21_human_E72L Fc fusion protein (from UniProt Q9HBE4 30-162)” had a pKd in assay [9] of 7.91.
As to “IL-21_P133I (from UniProt Q9HBE4 32-152) (ligand)”, the pKd is 7.36 in assay [2] and 6.96 in assay [3].
As to “IL-21_R34L (from UniProt Q9HBE4 32-152) (ligand)”, the pKd in [7] was 7.00; in [5], 7.11; in assay [6], 6.48.
In the case of “IL-21_P108L (from UniProt Q9HBE4 32-152) (ligand)”, the pKd in assay [1] was 6.44; in assay [2], 7.46; in assay [3], 7.00; in assay [4], 5.09.
On to “IL-21_H35P (from UniProt Q9HBE4 32-152) (ligand)”, for which the pKd is 7.39 in assay [7], 7.23 in assay [5] and 6.25 in [6].
As for “IL-21_human_I37R Fc fusion protein (from UniProt Q9HBE4 30-162)”, the pKd in [9] is 7.45.
Take “IL-21_human_D33T Fc fusion protein (from UniProt Q9HBE4 30-162)”: the figures for the pKd in [9] and in assay [10] were 7.43 and 7.83, respectively.
On to “IL-21_L120Y (from UniProt Q9HBE4 32-152) (ligand)”, for which the pKd in assay [5] is 7.24.
On to “IL-21_N54P (from UniProt Q9HBE4 32-152) (ligand)”, for which the pKd is 7.05 in [1], 7.70 in assay [2], 7.57 in [3] and 5.27 in [4].
Take “IL-21_K106T (from UniProt Q9HBE4 32-152) (ligand)”: the pKd was 6.70 in [7] and 6.68 in [6].
For “IL-21_E93G (from UniProt Q9HBE4 32-152) (ligand)”, the pKd is 7.43 in assay [2], 6.82 in assay [3] and 5.14 in assay [4].
On to “IL-21_R34T (from UniProt Q9HBE4 32-152) (ligand)”, for which the pKd in assay [8] is 7.59; in [5] it was 6.85; in assay [6] it was 6.46.
Turning to “IL-21_human_I45A Fc fusion protein (from UniProt Q9HBE4 30-162)”, the pKd in assay [9] was 7.90; in [10], 8.71.
Take “IL-21_S74A (from UniProt Q9HBE4 32-152) (ligand)”: the pKd in assay [1] is 6.85; in assay [3], 6.80; in assay [4], 5.36.
In the case of “IL-21_A63T (from UniProt Q9HBE4 32-152) (ligand)”, the figures for the pKd in assay [2], in assay [3] and in [4] were 7.68, 6.68 and 5.48, respectively.
The substance “IL-21_human_I37G Fc fusion protein (from UniProt Q9HBE4 30-162)” showed a pKd in assay [9] of 6.80.
Turning to “IL-21_R115P (from UniProt Q9HBE4 32-152) (ligand)”, the figures for the pKd in assay [8], in assay [5] and in assay [6] were 7.82, 7.24 and 7.26, respectively.
